Values quoted from earlier work as cited in PMC2903477.

Biological target: TrkB (Homo sapiens) (UniProt Q16620)
UniProt Q16620, sequence (Q16620 32-430): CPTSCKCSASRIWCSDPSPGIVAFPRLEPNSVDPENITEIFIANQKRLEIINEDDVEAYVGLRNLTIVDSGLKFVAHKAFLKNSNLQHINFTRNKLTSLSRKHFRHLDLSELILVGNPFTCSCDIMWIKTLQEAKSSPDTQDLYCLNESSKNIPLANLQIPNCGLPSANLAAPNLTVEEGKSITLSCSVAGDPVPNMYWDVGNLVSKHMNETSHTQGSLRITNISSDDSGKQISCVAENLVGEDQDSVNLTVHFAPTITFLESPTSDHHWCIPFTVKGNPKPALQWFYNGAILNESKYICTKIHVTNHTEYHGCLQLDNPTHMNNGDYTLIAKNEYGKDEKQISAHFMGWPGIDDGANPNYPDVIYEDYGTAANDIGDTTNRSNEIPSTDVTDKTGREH

**Q.** For BDNF (from UniProt P23560), which Kd is on record?
**A.** 0.1 nM
